Assay results reported in patent US20220281936.

Legend:
Mouse IL12 (unmodified) = biological target: T1, Mouse IL12 (unmodified)
T1 chain 1: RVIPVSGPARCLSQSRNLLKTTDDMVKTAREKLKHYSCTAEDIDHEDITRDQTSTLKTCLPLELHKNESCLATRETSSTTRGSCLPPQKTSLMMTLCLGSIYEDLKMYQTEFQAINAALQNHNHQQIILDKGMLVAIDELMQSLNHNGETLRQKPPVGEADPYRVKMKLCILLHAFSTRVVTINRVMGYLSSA
T1 chain 2: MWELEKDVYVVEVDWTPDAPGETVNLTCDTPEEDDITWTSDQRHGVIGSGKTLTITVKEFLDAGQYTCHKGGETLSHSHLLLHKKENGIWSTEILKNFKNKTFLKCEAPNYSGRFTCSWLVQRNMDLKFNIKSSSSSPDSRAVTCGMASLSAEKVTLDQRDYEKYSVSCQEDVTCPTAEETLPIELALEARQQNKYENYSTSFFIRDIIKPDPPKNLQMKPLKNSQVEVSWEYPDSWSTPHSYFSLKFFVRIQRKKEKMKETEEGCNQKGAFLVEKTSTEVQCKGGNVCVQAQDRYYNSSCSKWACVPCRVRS

B1: Recombinant mouse MMP9 (protein)
chain: FQTFKGLKWDHHNITYWIQNYSEDLPRDMIDDAFARAFAVWGEVAPLTFTRVYGPEADIVIQFGVAEHGDGYPFDGKDGLLAHAFPPGAGVQGDAHFDDDELWSLGKGVVIPTYYGNSNGAPCHFPFTFEGRSYSACTTDGRNDGTPWCSTTADYDKDGKFGFCPSERLYTEHGNGEGKPCVFPFIFEGRSYSACTTKGRSDGYRWCATTANYDQDKLYGFCPTRVDATVVGGNSAGELCVFPFVFLGKQYSSCTSDGRRDGRLWCATTSNFDTDKKWGFCPDQGYSLFLVAAHEFGHALGLDHSSVPEALMYPLYSYLEGFPLNKDDIDGIQYLYGRGSKPDPRPPATTTTEPQPTAPPTMCPTIPPTAYPTVGPTVGPTGAPSPGPTSSPSPGPTGAPSPGPTAPPTAGSSEASTESLSPADNPCNVDVFDAIAEIQGALHFFKDGWYWKFLNHRGSPLQGPFLTARTWPALPATLDSAFEDPQTKRVFFFSGRQMWVYTGKTVLGPRSLDKLGLGPEVTHVSGLLPRRLGKALLFSKGRVWRFDLKSQKVDPQSVIRVDKEFSGVPWNSHDIFQYQDKAYFCHGKFFWRVSFQNEVNKVDHEVNQVDDVGYVTYDLLQCP
proteolytic cleavage, SDS-PAGE (30 min, 37 C) (IL12Rβ1-VP-IL12): MMP2 and MMP9 fully cleaved the IL12Rβ1 portion, yielding IL12 heterodimer (-60 kDa)
proteolytic cleavage, SDS-PAGE (Mouse IL12 (unmodified)): These enzymes had no effect on IL12 itself
